The values below come from IntAct's records for PubMed 20561531.

First the molecules themselves.
B1: SPRY domain-containing SOCS box protein 2 (Mus musculus), O88838 (parent)
chain: MGQTALARGSSSTPTSQALYSDFSPPEGLEELLSAPPPDLVAQRHHGWNPKDCSENIDVKEGGLCFERRPVAQSTDGVRGKRGYSRGLHAWEISWPLEQRGTHAVVGVATALAPLQADHYAALLGSNSESWGWDIGRGKLYHQSKGLEAPQYPAGPQGEQLVVPERLLVVLDMEEGTLGYSIGGTYLGPAFRGLKGRTLYPSVSAVWGQCQVRIRYMGERRVEEPQSLLHLSRLCVRHALGDTRLGQISTLPLPPAMKRYLLYK
partner: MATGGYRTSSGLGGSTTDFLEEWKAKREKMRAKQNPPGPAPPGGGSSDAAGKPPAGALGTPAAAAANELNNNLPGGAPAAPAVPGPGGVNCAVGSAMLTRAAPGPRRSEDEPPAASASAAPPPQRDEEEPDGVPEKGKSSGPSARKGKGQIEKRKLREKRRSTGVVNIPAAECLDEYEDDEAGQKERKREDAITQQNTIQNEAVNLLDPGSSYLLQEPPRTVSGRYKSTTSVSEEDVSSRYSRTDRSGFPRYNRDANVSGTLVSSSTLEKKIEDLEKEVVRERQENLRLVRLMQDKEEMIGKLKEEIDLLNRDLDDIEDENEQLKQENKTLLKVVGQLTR
B2: PRKC apoptosis WT1 regulator protein (Homo sapiens), Q96IZ0 (parent)
chain: B1 partner

Variants of B1 are the subject of one assay. The conditions noted are these: with pawr_human PAWR, Q96IZ0.
MGQTALARGSSSTPTSQALYSDFSPPEGLEELLSAPPPDLVAQRHHGWNPKDCSENIDVKEGGLCFERRPVAQSTDGVRGKRGYSRGLHAWEISWPLEQRGTHAVVGVATALAPLQADHYAALLGSNSESWGWDIGRGKLYHQSKGLEAPQYPAGPQGEQLVVPERLLVVLDMEEGTLGYSIGGTYLGPAFRGLKGRTLYPSVSAAWGQCQVRIRYMGERRVEEPQSLLHLSRLCVRHALGDTRLGQISTLPLPPAMKRYLLYK [V206A]: the “effect of a mutation on the interaction” value is reported as “disrupting interaction”.
Still for that read-out and setting: as for MGQTALARGSSSTPTSQALYSDFSPPEGLEELLSAPPPDLVAQRHHGWNPKDCSENIDVKEGGLCFERRPVAQSTDGVRGKRGYSRGLHAWEISWPLEQRGTHAVVGVATALAPLQADHYAAAAASNSESWGWDIGRGKLYHQSKGLEAPQYPAGPQGEQLVVPERLLVVLDMEEGTLGYSIGGTYLGPAFRGLKGRTLYPSVSAVWGQCQVRIRYMGERRVEEPQSLLHLSRLCVRHALGDTRLGQISTLPLPPAMKRYLLYK [L123A;L124A;G125A], the entry is “disrupting interaction”; as for MGQTALARGSSSTPTSQALYSDFSPPEGLEELLSAPPPDLVAQRHHGWNPKDCSENIDVKEGGLCFERRPVAQSTDGVRGKRGYSRGLHAWEISWPLEQRGTHAVVGVATALAPLQADHAAALLGSNSESWGWDIGRGKLYHQSKGLEAPQYPAGPQGEQLVVPERLLVVLDMEEGTLGYSIGGTYLGPAFRGLKGRTLYPSVSAVWGQCQVRIRYMGERRVEEPQSLLHLSRLCVRHALGDTRLGQISTLPLPPAMKRYLLYK [Y120A], “disrupting interaction”; as for MGQTALARGSSSTPTSQALYSDFSPPEGLEELLSAPPPDLVAQRHHGWNPKDCSENIDVKEGGLCFERRPVAQSTDGVRGKRGYSRGLHAWEISWPLEQRGTHAVVGVATALAPLQADHYAALLGAAAESWGWDIGRGKLYHQSKGLEAPQYPAGPQGEQLVVPERLLVVLDMEEGTLGYSIGGTYLGPAFRGLKGRTLYPSVSAVWGQCQVRIRYMGERRVEEPQSLLHLSRLCVRHALGDTRLGQISTLPLPPAMKRYLLYK [S126A;N127A;S128A], “disrupting interaction”.

Variants of B2 are the subject of a further assay. Particulars: with spsb2_mouse Spsb2, O88838.
With MATGGYRTSSGLGGSTTDFLEEWKAKREKMRAKQNPPGPAPPGGGSSDAAGKPPAGALGTPAAAAANDLNNNLPGGAPAAPAVPGPGGVNCAVGSAMLTRAAPGPRRSEDEPPAASASAAPPPQRDEEEPDGVPEKGKSSGPSARKGKGQIEKRKLREKRRSTGVVNIPAAECLDEYEDDEAGQKERKREDAITQQNTIQNEAVNLLDPGSSYLLQEPPRTVSGRYKSTTSVSEEDVSSRYSRTDRSGFPRYNRDANVSGTLVSSSTLEKKIEDLEKEVVRERQENLRLVRLMQDKEEMIGKLKEEIDLLNRDLDDIEDENEQLKQENKTLLKVVGQLTR [E68D], the “effect of a mutation on the interaction” value was “increasing interaction”.
Still for that read-out and setting: as for MATGGYRTSSGLGGSTTDFLEEWKAKREKMRAKQNPPGPAPPGGGSSDAAGKPPAGALGTPAAAAANELNANLPGGAPAAPAVPGPGGVNCAVGSAMLTRAAPGPRRSEDEPPAASASAAPPPQRDEEEPDGVPEKGKSSGPSARKGKGQIEKRKLREKRRSTGVVNIPAAECLDEYEDDEAGQKERKREDAITQQNTIQNEAVNLLDPGSSYLLQEPPRTVSGRYKSTTSVSEEDVSSRYSRTDRSGFPRYNRDANVSGTLVSSSTLEKKIEDLEKEVVRERQENLRLVRLMQDKEEMIGKLKEEIDLLNRDLDDIEDENEQLKQENKTLLKVVGQLTR [N71A], the entry is “disrupting interaction”.

In a further assay the parent is B2. The conditions noted are these: with spsb4_mouse Spsb4, Q8R5B6.
spsb4_mouse Spsb4, Q8R5B6, sequence (Q8R5B6 whole entry): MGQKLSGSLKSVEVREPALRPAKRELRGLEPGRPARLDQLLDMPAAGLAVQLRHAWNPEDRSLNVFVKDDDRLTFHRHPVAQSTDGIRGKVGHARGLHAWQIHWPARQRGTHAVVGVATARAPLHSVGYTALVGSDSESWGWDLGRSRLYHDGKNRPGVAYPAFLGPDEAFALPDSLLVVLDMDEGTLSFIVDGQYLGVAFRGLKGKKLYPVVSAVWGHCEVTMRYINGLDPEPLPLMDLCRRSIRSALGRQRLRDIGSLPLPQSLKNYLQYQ
MATGGYRTSSGLGGSTTDFLEEWKAKREKMRAKQNPPGPAPPGGGSSDAAGKPPAGALGTPAAAAANDLNNNLPGGAPAAPAVPGPGGVNCAVGSAMLTRAAPGPRRSEDEPPAASASAAPPPQRDEEEPDGVPEKGKSSGPSARKGKGQIEKRKLREKRRSTGVVNIPAAECLDEYEDDEAGQKERKREDAITQQNTIQNEAVNLLDPGSSYLLQEPPRTVSGRYKSTTSVSEEDVSSRYSRTDRSGFPRYNRDANVSGTLVSSSTLEKKIEDLEKEVVRERQENLRLVRLMQDKEEMIGKLKEEIDLLNRDLDDIEDENEQLKQENKTLLKVVGQLTR [E68D]: the “effect of a mutation on the interaction” value is “increasing interaction”.
Same read-out and setting: the entry for MATGGYRTSSGLGGSTTDFLEEWKAKREKMRAKQNPPGPAPPGGGSSDAAGKPPAGALGTPAAAAANELNANLPGGAPAAPAVPGPGGVNCAVGSAMLTRAAPGPRRSEDEPPAASASAAPPPQRDEEEPDGVPEKGKSSGPSARKGKGQIEKRKLREKRRSTGVVNIPAAECLDEYEDDEAGQKERKREDAITQQNTIQNEAVNLLDPGSSYLLQEPPRTVSGRYKSTTSVSEEDVSSRYSRTDRSGFPRYNRDANVSGTLVSSSTLEKKIEDLEKEVVRERQENLRLVRLMQDKEEMIGKLKEEIDLLNRDLDDIEDENEQLKQENKTLLKVVGQLTR [N71A] is “disrupting interaction”.

In another assay the parent is B2. The conditions noted are these: with spsb2_mouse Spsb2, O88838. This is another data set of the same source.
As for MATGGYRTSSGLGGSTTDFLEEWKAKREKMRAKQNPPGPAPPGGGSSDAAGKPPAGALGTPAAAAANELNNALPGGAPAAPAVPGPGGVNCAVGSAMLTRAAPGPRRSEDEPPAASASAAPPPQRDEEEPDGVPEKGKSSGPSARKGKGQIEKRKLREKRRSTGVVNIPAAECLDEYEDDEAGQKERKREDAITQQNTIQNEAVNLLDPGSSYLLQEPPRTVSGRYKSTTSVSEEDVSSRYSRTDRSGFPRYNRDANVSGTLVSSSTLEKKIEDLEKEVVRERQENLRLVRLMQDKEEMIGKLKEEIDLLNRDLDDIEDENEQLKQENKTLLKVVGQLTR [N72A], the “effect of a mutation on the interaction” value is reported as “disrupting interaction”.

The next assay covers variants of B2. The conditions noted are these: with spsb4_mouse Spsb4, Q8R5B6. The source holds these as a separate data set.
Regarding MATGGYRTSSGLGGSTTDFLEEWKAKREKMRAKQNPPGPAPPGGGSSDAAGKPPAGALGTPAAAAANELNNALPGGAPAAPAVPGPGGVNCAVGSAMLTRAAPGPRRSEDEPPAASASAAPPPQRDEEEPDGVPEKGKSSGPSARKGKGQIEKRKLREKRRSTGVVNIPAAECLDEYEDDEAGQKERKREDAITQQNTIQNEAVNLLDPGSSYLLQEPPRTVSGRYKSTTSVSEEDVSSRYSRTDRSGFPRYNRDANVSGTLVSSSTLEKKIEDLEKEVVRERQENLRLVRLMQDKEEMIGKLKEEIDLLNRDLDDIEDENEQLKQENKTLLKVVGQLTR [N72A], the “effect of a mutation on the interaction” value is “disrupting interaction”.
